The numbers were not newly measured in article PMC9147092, which cites them from elsewhere.

The target in one series is ERdj2 (Homo sapiens) (UniProt Q9UGP8).
The target in series [1] is BiP (Homo sapiens) (UniProt P11021).
The target is the same in series [2]. This is another data set of the same source.
For series [3] the target is unchanged. The source holds these as a separate data set.

Where two headings read alike, the source gives them in different places.

Sequence of UniProt P11021 (P11021 19-654): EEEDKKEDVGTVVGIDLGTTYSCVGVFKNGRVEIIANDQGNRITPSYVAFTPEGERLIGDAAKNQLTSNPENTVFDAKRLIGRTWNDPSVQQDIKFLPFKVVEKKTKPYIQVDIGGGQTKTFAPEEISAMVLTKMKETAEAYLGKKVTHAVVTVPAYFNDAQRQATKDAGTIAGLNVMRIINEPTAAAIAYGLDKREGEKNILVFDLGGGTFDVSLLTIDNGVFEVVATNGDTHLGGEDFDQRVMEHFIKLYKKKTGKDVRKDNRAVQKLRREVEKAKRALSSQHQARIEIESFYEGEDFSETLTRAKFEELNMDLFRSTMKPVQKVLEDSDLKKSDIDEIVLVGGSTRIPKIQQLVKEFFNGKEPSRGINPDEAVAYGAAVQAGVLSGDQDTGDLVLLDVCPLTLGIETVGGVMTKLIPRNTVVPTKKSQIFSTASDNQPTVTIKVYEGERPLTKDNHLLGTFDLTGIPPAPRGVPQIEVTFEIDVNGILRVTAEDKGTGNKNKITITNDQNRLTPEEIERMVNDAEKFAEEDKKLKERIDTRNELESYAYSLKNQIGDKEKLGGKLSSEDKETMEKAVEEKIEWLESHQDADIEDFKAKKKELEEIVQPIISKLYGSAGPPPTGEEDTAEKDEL
Sequence of UniProt Q9UGP8 (Q9UGP8 whole entry): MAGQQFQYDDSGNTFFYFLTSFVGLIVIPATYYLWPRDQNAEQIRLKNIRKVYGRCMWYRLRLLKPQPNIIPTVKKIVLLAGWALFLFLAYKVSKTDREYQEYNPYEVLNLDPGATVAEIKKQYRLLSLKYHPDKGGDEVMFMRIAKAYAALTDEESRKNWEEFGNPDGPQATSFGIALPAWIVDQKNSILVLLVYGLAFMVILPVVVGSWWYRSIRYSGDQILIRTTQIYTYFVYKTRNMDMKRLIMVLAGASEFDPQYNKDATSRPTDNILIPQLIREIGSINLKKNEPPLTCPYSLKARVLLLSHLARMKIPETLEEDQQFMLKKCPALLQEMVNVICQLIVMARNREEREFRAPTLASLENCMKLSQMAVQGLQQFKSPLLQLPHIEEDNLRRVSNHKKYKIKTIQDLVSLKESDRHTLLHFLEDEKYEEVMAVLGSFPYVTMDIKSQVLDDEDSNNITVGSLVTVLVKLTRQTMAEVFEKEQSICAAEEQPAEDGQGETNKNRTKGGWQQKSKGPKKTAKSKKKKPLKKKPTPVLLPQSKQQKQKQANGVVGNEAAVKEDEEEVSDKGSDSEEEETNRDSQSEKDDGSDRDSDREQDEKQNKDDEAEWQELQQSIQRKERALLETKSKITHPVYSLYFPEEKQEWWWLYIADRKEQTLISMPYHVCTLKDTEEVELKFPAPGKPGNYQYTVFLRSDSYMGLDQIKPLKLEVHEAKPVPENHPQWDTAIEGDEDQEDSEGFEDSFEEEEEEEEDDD

The Kd is the free concentration of one partner at which half of the binding sites on the other are occupied at equilibrium, for simple one-to-one binding. Take Sec62 (from UniProt Q99442): the Kd with ERdj2 (Homo sapiens) is 5 nM.
Turning to “PERK luminal domain (from UniProt Q9NZJ5)”, the Kd with BiP (Homo sapiens) [1] was 830 nM.
As for ERdj6 (from UniProt Q13217), the Kd with BiP (Homo sapiens) [2] was 5000 nM.
With ERdj1 (from UniProt Q96KC8), the Kd in the series with BiP (Homo sapiens) [3] was 570 nM.
